{
  "source": "patent US20150225755A1",
  "about": "“Ergothioneine Production Through Metabolic Engineering” (priority 2012, published 2015)",
  "molecules": {"B1": {"name": "NcEgt-1: enzyme from Neurospora crassa that catalyzes oxidative coupling of hercynine and cysteine (protein)", "chain": "MPSAESMTPSSALGQLKATGQHVLSKLQQQTSNADIIDIRRVAVEINLKTEITSMFRPKDGPRQLPTLLLYNERGLQLFERITYLEEYYLTNDEIKILTKHATEMASFIPSGAMIIELGSGNLRKVNLLLEALDNAGKAIDYYALDLSREELERTLAQVPSYKHVKCHGLLGTYDDGRDWLKAPENINKQKCILHLGSSIDKVGITHEFILNGLRNANEIIGETAFIEGDWRVIGEYVYDEEGGRHQAFYAPTRDTMVMGELIRSHDRIQIEQSLKYSKEESERLWSTAGLEQVSEWTYGNEYGLHLLAKSRMSFSLIPSVYARSALPTLDDWEALWATWDVVTRQMLPQEELLEKPIKLRNACIFYLGHIPTFLDIQLTKTTKQAPSEPAHFCKIFERGIDPDVDNPELCHAHSEIPDEWPPVEEILTYQETVRSRLRGLYAHGIANIPRNVGRAIWVGFEHELMHIETLLYMMLQSDKTLIPTHIPRPDFDKLARKAESERVPNQWFKIPAQEITIGLDDPEDGSDINKHYGWDNEKPPRRVQVAAFQAQGRPITNEEYAQYLLEKNIDKLPASWARLDNENISNGTTNSVSGHHSNRTSKQQLPSSFLEKTAVRTVYGLVPLKHALDWPVFASYDELAGCAAYMGGRIPTFEETRSIYAYADALKKKKEAERQLGRTVPAVNAHLTNNGVEITPPSSPSSETPAESSSPSDSNTTLITTEDLFSDLDGANVGFHNWHPMPITSKGNTLVGQGELGGVWEWTSSVLRKWEGFEPMELYPGYTADFFDEKHNIVLGGSWATHPRIAGRKSFVNWYQRNYPYAWVGARVVRDL", "modifications": "Neurospora crassa OR74A", "notes": "enzyme from Neurospora crassa that catalyzes oxidative coupling of hercynine and cysteine"}},
  "key": {"EgtB": {"molecular_target": "EgtB (Mycolicibacterium smegmatis, UniProt A0R5N0)", "assay": "EgtB activity using hercynine (2) and Cys as substrates", "format": "biochemical, Mycobacterium smegmatis", "source_text": "(§1) Two different assays were developed for both EgtB and OvoA catalysis (FIG. 3). Both EgtB and OvoA are proposed to be oxidases,^[9-10] which catalyze the oxidative coupling between His and Cys to form the C—S bond. At the same time, sulfur is oxidized to sulfoxide. The overall process is a four-electron oxidation process (FIG. 1) similar to the case of the isopenicillin N synthase.^[12] In the initial report by Seebeck, they monitored the reaction by monitoring the absorption changes at 260 nm because the oxidative products (3 or 6, FIG. 1) have absorptions in this region. However, it is not very sensitive. Oxygen is needed because there was no detectable product formation under anaerobic conditions. Based on this feature, we developed the EgtB and OvoA activity assays by monitoring the oxygen consumption rate (FIG. 3-I-B) using the NeoFoxy oxygen electrode (FIG. 3-I-A). This assay (FIG. 3-I-B) was used as the routine assay to optimize the conditions for EgtB and OvoA activities.\nAccording to the initial reports from Seebeck,^[9-10] EgtB and OvoA distinguish themselves from each other by both their substrate preferences and their product C—S bond regio-selectivity (FIG. 1). The C—S bond in ergothioneine (5) is located at the histidine ε-carbon, while for ovothiol, the C—S bond is located at the histidine δ-carbon (8). Their substrate preferences are also different. […]"}, "OvoA": {"molecular_target": "OvoA (Erwinia tasmaniensis, UniProt B2VFD8)", "assay": "OvoA activity, oxygen consumption assay / kinetic analysis", "format": "biochemical", "conditions": "air-saturated HEPES buffer", "source_text": "as §1\n(§2) For oxygenase or oxidase-catalyzed reaction, potential problems include the presence of side-reactions, non-productive oxygen consumption, or oxidative inactivation of enzyme itself. Multiple activity assays will provide useful information to analyze those situations. To achieve this goal, besides the oxygen consumption assay, we have also developed a ^1H-NMR assay to directly monitor the product formation (FIG. 3-II). In ^1H-NMR, the chemical shifts of the imidazole H-atoms in both the products (3 and 6, FIG. 3-II) and the substrates (1 and 2) are well-separated from the rest of the reaction mixture. Thus, the reaction mixture can be analyzed routinely without the need of a product separation. In FIG. 3-II-B (OvoA catalysis), the signals with chemical shifts at 6.93 ppm and 7.70 ppm are assigned to the two histidine imidazole H-atoms. The signal at 7.83 ppm is from the imidazole H-atom of the oxidative coupling product 6. While for the oxidative product 3 (EgtB catalysis), its imidazole H-atom has a chemical shift of 7.10 ppm (FIG. 3-II-B). […]"}, "[1]": {"test_system": "C[N+](C)(C)[C@@H](Cc1cnc[nH]1)C(=O)[O-]", "assay": "OvoA activity, oxygen consumption assay / kinetic analysis", "format": "biochemical, Erwinia tasmaniensis", "conditions": "other: air-saturated HEPES buffer; coupling with Cys", "source_text": "as §1, §2"}, "N[C@@H](CS)C(=O)O": {"test_system": "N[C@@H](CS)C(=O)O", "assay": "OvoA activity, oxygen consumption assay / kinetic analysis", "format": "biochemical, Erwinia tasmaniensis", "conditions": "other: air-saturated HEPES buffer; coupling with hercynine (2)", "source_text": "as §1, §2"}, "NcEgt-1": {"molecular_target": "T1, NcEgt-1 (Neurospora crassa, UniProt Q7RX33)", "T1 sequence (Q7RX33 whole entry, looked up)": "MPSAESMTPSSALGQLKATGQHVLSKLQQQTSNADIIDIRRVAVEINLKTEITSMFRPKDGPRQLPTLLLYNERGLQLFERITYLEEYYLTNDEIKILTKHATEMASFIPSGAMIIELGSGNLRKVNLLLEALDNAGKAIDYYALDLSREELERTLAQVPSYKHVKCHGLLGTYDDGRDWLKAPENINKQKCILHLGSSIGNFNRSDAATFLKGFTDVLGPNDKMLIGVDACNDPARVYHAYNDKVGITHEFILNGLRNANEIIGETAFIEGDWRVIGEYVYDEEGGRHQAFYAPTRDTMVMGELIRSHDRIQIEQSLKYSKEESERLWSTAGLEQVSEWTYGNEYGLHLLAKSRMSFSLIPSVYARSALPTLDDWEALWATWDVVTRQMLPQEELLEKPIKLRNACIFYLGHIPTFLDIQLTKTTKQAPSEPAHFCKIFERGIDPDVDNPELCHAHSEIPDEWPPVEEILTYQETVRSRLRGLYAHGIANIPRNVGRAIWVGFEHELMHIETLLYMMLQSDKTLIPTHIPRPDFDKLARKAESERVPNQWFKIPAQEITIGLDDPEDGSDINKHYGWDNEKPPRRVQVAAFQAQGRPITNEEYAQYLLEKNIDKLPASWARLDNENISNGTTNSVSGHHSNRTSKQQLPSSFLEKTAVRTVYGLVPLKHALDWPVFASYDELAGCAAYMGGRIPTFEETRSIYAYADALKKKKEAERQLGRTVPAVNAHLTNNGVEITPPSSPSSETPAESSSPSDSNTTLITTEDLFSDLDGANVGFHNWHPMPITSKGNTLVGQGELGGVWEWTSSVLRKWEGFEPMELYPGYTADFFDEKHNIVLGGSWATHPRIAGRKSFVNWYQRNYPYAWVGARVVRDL", "assay": "NcEgt-1 catalysed oxidative coupling of hercynine (2) and Cys to form 4", "format": "biochemical", "source_text": "In the above section, we have successfully solved the EgtE problems, which enable ergothioneine production through metabolic engineering. However, the original ergothioneine biosynthetic pathway (FIG. 1A) is not efficient. To solve this problem, we initiated the search for enzymes that can oxidatively couples hercynine (2) and Cys directly as outlined in FIG. 2. Two of such enzymes (OvoA in FIG. 1B and NcEgt-1 from Neurospora crassa^[13]) have been identified by a combination of bioinformatics analysis and activity analysis using oxygen and ^1H-NMR assays.\nBased on this exciting discovery, we have also examined another protein NcEgt-lfrom Neurospora crassa^[13]."}},
  "data": [
    {"molecule": "N[C@@H](CS)C(=O)O", "note": "[Cys, cysteine]", "values": [
      {"measurement": "recognition as substrate by EgtB", "setting": "EgtB", "value": "cannot recognize Cys as the substrate"}
    ]},
    {"molecule": "C[N+](C)(C)[C@@H](Cc1cnc[nH]1)C(=O)[O-]", "note": "[hercynine]", "values": [
      {"measurement": "kcat for the oxidative coupling between Cys and hercynine (2)", "setting": "OvoA", "value": "4.5 ± 0.083", "unit": "s⁻¹"}
    ]},
    {"molecule": "OvoA (Erwinia tasmaniensis Et1/99)", "values": [
      {"measurement": "Km", "setting": "[1]", "value": "395 ± 30", "unit": "µM"},
      {"measurement": "Km", "setting": "N[C@@H](CS)C(=O)O", "value": "3190 ± 410", "unit": "µM"}
    ]},
    {"molecule": "B1", "values": [
      {"measurement": "activity of 2→4 conversion compared with OvoA", "setting": "NcEgt-1", "value": "same order of magnitude as OvoA"}
    ]}
  ]
}
